Test results as given in patent US20160304584, “MAFB MUTANTS AND USES THEREOF” (INSERM (INSTITUT NATIONAL DE LA SANTÉ ET DE LA …, published 2016).

Experiments:
[1] = biological target: MafB (E269R)/c-Fos heterodimer (UniProt P54841;P01101 P54841:211-305,P01101:138-200, MafB E269R); test: EMSA; exclusive heterodimer even at residual c-Fos; details: label: 32P
Experimental: (§1) Double-stranded synthetic oligonucleotides corresponding to the T-MARE(a) ([…]) (SEQ ID NO:5), to T-MARE(beta) ([…]) (SEQ ID NO:6) or to T-MARE(y) ([…]) (SEQ ID NO:7) sites were incubated with Klenow fragment DNA polymerase in the presence of [α³²P][…] and purified on Qiaquick Spin Columns (Qiagen). Increasing amount (0.25 to 64 pmol) of recombinant c-Fos and recombinant protein (4 pmol) of MafB (wt) or MafB (E269R) and MafB (V277N) mutants were incubated with 0.05 ng of probe in 20 μL of binding reaction buffer (20 mM Tris-HCl (pH 7.5), 100 mM KCl, 0.1 mM EDTA, 5% glycerol, 0.1% Triton X-100, 0.02% BSA, […] poly d[I-C]) for 20 min. Complexes formed were resolved on a 6% polyacrylamide (acrylamide/bisacrylamide ratio, 29:1) non-denaturating gel (Bio-Rad) in 0.5% Tris-glycine. Gels were dried and autoradiographed at −80° C.

[2] = biological target: T1, MafB (wt)/c-Fos heterodimer (UniProt P54841;P01101 P54841:211-305,P01101:138-200); test: EMSA; strongly preferred over homodimer; details: label: 32P
T1 sequence (P54841 211-305, chain 1 of 2): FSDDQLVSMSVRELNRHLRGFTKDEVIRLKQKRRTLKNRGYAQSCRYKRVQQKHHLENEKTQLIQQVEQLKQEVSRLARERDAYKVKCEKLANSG
T1 sequence (P01101 138-200, chain 2 of 2): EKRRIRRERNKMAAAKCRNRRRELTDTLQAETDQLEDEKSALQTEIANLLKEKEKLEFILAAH
Experimental: as §1

[3] = biological target: MafB (V277N)/c-Fos heterodimer (UniProt P54841;P01101 P54841:211-305,P01101:138-200, MafB V277N); test: EMSA; binding unchanged versus wt; details: label: 32P
Sequence of MafB (V277N)/c-Fos heterodimer (P54841 211-305 V277N, chain 1 of 2): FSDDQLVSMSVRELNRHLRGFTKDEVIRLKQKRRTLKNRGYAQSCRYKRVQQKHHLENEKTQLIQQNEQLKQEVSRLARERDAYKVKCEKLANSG
Sequence of MafB (V277N)/c-Fos heterodimer (P01101 138-200, stated change not applied, chain 2 of 2): as the sequence (P01101 138-200, chain 2 of 2) above
Experimental: as §1

[4] = biological target: MafB (E269R) full-length with c-Fos (UniProt P54841;P01101 P54841:1-323,P01101:1-380, MafB E269R); test: cell_activity; luciferase, HEK293, with c-Fos
Sequence of MafB (E269R) full-length with c-Fos (P54841 whole entry E269R, chain 1 of 2): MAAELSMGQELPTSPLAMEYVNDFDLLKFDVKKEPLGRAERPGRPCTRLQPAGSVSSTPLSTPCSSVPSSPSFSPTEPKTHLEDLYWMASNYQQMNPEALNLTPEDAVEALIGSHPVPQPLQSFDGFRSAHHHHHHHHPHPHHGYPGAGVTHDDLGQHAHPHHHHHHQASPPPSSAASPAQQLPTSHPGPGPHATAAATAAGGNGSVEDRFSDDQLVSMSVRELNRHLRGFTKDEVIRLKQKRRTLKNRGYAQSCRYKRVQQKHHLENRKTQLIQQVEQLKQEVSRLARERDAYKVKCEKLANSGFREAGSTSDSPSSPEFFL
Sequence of MafB (E269R) full-length with c-Fos (P01101 whole entry, stated change not applied, chain 2 of 2): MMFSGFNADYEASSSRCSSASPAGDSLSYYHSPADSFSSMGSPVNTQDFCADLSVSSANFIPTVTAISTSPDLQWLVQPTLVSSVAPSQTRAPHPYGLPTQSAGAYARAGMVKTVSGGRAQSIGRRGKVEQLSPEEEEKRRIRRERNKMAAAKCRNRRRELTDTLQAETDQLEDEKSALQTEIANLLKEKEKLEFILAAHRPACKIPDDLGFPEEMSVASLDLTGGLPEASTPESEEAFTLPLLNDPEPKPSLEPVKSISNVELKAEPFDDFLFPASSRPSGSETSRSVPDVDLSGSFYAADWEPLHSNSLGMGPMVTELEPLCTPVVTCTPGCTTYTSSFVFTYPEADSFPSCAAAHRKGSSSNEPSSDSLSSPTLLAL
Experimental: HEK293 cells were grown in Dulbecco's modified eagle's medium supplemented with 10% fetal bovine serum in six-well plates to reach 60-80% confluence at the time of transfection. DNA was transfected by calcium phosphate precipitation procedure as previously described (Sieweke et al., 1996). pTK81 luciferase reporter constructs (200 ng) (Promega) containing three multimerized T-MARE(alpha) ([…] CA […]), T-MARE(beta) ([…] CA […]), or T-MARE (y) ([…] […]) were cotransfected with 200 ng of Rc/CMV (Invitrogen) constructs driving the expression of wt and mutant full-length MafB with or without 200 ng of Rc/CMV construct driving the expression of c-Fos or no transgene (vector control). Assays were performed in duplicate. The transfection efficiency was normalized by assaying for β-galactosidase activity from a cotransfected CVM-LacZ construct, and luciferase activity was analyzed as previously described (Sieweke et al., 1996). […] The transfection efficiency was normalized, by assaying for β-galactosidase activity from a cotransfected CVM-LacZ construct, and luciferase activity was analyzed using a dual-luciferase reporter assay system (Promega, Cat: E1910) according to the manufacturer's recommendations.

[5] = biological target: MafB (wt) fragment 211-305 C298S, homodimer (Mus musculus, UniProt P54841 SEQ:211-305, C298S); test: structure; 2.9 A crystal structure; 50 mM MgCl2 in complex buffer; details: chain copies: 2
Sequence of MafB (wt) fragment 211-305 C298S, homodimer (P54841 211-305 C298S): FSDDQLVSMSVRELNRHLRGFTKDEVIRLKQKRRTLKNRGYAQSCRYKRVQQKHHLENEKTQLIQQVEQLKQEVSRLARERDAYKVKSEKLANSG
Experimental: The C-terminal region of MafB from Mus musculus (residues 211-305, C298S) was purified as previously described (Textor et al., 2007). Homodimeric MafB₂ complexes were dialyzed overnight into 30 mM Tris-HCl (pH 7.3), 80 mM NaCl, 50 mM MgCl₂ and 3 mM β-mercaptoethanol at room temperature in the presence of an oligonucleotide encompassing the T-MARE-binding site (forward: […] (SEQ ID NO:3); reverse: […] (SEQ ID NO:4), METABION). The protein-DNA complex was further purified by size exclusion chromatography on a Superdex-75 (16/60) column (GE), equilibrated with the dialysis buffer. The pooled peak fractions corresponding to the (MafB)₂/T-MARE complex were analyzed by SDS-PAGE and native PAGE gels and concentrated to 5 mg/mL, using a centrifugal concentrator with a polyethersulfone membrane with a 10,000 MWCO (VIVASPIN, Sartorius Stedim Biotech). Crystallization drops of 400 nL volume, using a 1:1 protein/mother liquor ratio, were set up in 96-well sitting-drop plates and allowed to equilibrate at 19° C. Diffracting crystals grew in the presence of 0.1 M Na-citrate (pH 5.0), 15% [w/v] PEG-4000, 5% [v/v] PEG-400, and 0.1 M MgCl₂.

[6] = biological target: T2, MafB (wt) homodimer (UniProt P54841 SEQ:211-305); test: EMSA; only homodimer bound; details: chain copies: 2; label: 32P
T2 sequence (P54841 211-305): as the sequence (P54841 211-305, chain 1 of 2) above
Experimental: as §1

[7] = biological target: T1, MafB (wt)/c-Fos heterodimer; test: EMSA; no significant heterodimer detected; details: label: 32P
Experimental: as §1

[8] = biological target: MafB (V277N) homodimer (UniProt P54841 SEQ:211-305, V277N); test: EMSA; no enhanced site selection compared with wt; details: chain copies: 2; label: 32P
Sequence of MafB (V277N) homodimer (P54841 211-305 V277N): as the sequence (P54841 211-305 V277N, chain 1 of 2) above
Experimental: as §1

[9] = biological target: T2, MafB (wt) homodimer; test: EMSA; comparable to heterodimer at equimolar c-Fos; favoured with excess MafB; details: chain copies: 2; label: 32P
Experimental: as §1

[10] = biological target: T1, MafB (wt)/c-Fos heterodimer; test: EMSA; comparable to homodimer at equimolar ratio; favoured with excess c-Fos; details: label: 32P
Experimental: as §1

Sequence of MafB (E269R)/c-Fos heterodimer (P54841 211-305 E269R, chain 1 of 2): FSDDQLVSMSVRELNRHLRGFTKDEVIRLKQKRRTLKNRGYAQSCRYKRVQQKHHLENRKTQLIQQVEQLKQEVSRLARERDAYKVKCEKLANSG
Sequence of MafB (E269R)/c-Fos heterodimer (P01101 138-200, stated change not applied, chain 2 of 2): as the sequence (P01101 138-200, chain 2 of 2) above

B1: T-MARE(beta) (dsDNA)
DNA 1: TCGTCCCCTCCTATGAGTCAGCAATTCTC
DNA 2: GAGAATTGCTGACTCATAGGAGGGGACGA
binding result [1]: binds | binding result [2]: binds | binding result [3]: binds

B2: T-MARE(beta) x3 reporter (dsDNA)
DNA 1: TCGACCTCCCCTCCTATGAGTCAGCAATTCTCTCGAGCTCCCCTCCTATGAGTCAGCAATTCTCTCGAGCTCCCCTCCTATGAGTCAGCAATTCTCGTCGACCC
DNA 2: GGGTCGACGAGAATTGCTGACTCATAGGAGGGGAGCTCGAGAGAATTGCTGACTCATAGGAGGGGAGCTCGAGAGAATTGCTGACTCATAGGAGGGGAGGTCGA
activity [4]: 5 fold vs wt

B3: T-MARE 20-bp (dsDNA)
DNA 1: TAATTGCTGACTCAGCAATT
DNA 2: TAATTGCTGAGTCAGCAATT
binding result [5]: binds

B4: T-MARE(gamma) (dsDNA)
DNA 1: TCGTCCCTTATGCCTACTAGGCAATTCTC
DNA 2: GAGAATTGCCTAGTAGGCATAAGGGACGA
binding result [6]: binds | binding result [7]: no binding | binding result [8]: binds

B5: T-MARE(alpha) (dsDNA)
DNA 1: TCGTCCCTTATGCTGACTCAGCAATTCTC
DNA 2: GAGAATTGCTGAGTCAGCATAAGGGACGA
binding result [9]: binds | binding result [10]: binds
